The results in this text go back to article PMC3601965, “Conformational Change-Induced Repeat Domain Expansion Regulates Rap Phosphatase Quorum-Sensing Signal Receptors” (PLoS Biology, 2013).

Changes are numbered by the printed parent chain.

Assay [1] has as its target T1, RapJ (B. subtilis strain 168, UniProt O34327 1-373).
T1 construct: RapJ, Bacillus subtilis strain 168, amplified from genomic DNA; no heterologous residues after removal of His-Sumo; Phases came from selenomethionyl RapJ crystals; In the functional rows the in vivo RapJ was expressed in B. subtilis VP068 from pDRJ1 (IS75 DNA); also called response regulator aspartate phosphatase J; wild-type RapJ; source: E. coli BL21(DE3), purified (His-60 Ni resin, SUMO …)
T1 sequence (looked up): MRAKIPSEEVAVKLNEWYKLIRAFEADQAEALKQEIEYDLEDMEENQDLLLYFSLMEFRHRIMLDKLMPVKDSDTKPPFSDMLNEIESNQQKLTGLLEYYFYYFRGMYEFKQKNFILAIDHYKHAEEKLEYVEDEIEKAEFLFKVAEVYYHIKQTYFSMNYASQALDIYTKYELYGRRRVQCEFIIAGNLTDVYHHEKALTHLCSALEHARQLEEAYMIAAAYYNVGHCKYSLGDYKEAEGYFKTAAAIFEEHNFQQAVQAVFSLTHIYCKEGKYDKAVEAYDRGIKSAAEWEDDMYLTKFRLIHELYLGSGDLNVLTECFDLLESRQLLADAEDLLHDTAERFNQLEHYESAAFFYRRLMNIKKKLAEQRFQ
The assay is described as follows: SEC + other: MALDI-TOF and MALDI-TOF/TOF mass spectrometry; 8.5 mM PhrC mixed with 425 µM RapJ (wild type or R105A,Y161F), Superdex 200 16/70 in 20 mM Tris-HCl pH 8.0, 50 mM KCl, 5 mM MgCl2, 5 mM DTT; peak fractions analysed for PhrC (m/z 593.27); PhrC alone as control. To be noted: both partners purified.

Assay [2] concerns the target T2, RapJ-R105A,Y161F (B. subtilis, UniProt O34327 1-373, R105A | Y161F).
T2 construct: RapJ, Bacillus subtilis, double mutant R105A,Y161F; same construct limits as wild-type RapJ; source: overexpressed and purified as for X-ray crystallography (E. coli; after the SourceQ step dialysed against buffer H); not shown: His, N-terminal, cleaved; SUMO, N-terminal, cleaved
T2 sequence (looked up): T1 sequence (looked up) with R105A, Y161F
The description is as above. To be noted: both partners purified.

B1: PhrC (peptide)
peptide: ERGMT
notes: mature PhrC pentapeptide (NH2-ERGMT-COOH), cut from the C-terminus of pro-PhrC, Bacillus subtilis; also called CSF; source: synthetic peptide, bought: LifeTein, 95% purity
In the case of B1, the binding result in assay [1] and in assay [2] was “binds” in each case.
